Legend:
MUC5AC long construct = target: T1, MUC5AC long construct (Homo sapiens, UniProt P98088, DEL3501-3501/G3481S/I3234V); experiment: Immunofluorescence of transfected CHO cells; format: cell-based; conditions: different plasmid clones of the MUC5AC long construct
T1 construct: expressed in transfected cells; host or cells: CHO cells, transient/clonal plasmid transfection
T1 sequence (P98088 with tags, fused parts or gaps I3234V/G3481S/DEL3501-3501): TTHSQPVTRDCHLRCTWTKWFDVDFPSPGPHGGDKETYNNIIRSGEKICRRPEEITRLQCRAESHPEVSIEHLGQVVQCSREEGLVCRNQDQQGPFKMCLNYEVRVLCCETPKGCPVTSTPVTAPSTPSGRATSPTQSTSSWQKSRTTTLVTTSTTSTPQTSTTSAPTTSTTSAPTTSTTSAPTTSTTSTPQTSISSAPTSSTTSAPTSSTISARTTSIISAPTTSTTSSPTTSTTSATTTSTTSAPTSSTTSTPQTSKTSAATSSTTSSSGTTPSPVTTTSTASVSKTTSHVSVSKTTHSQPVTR
From the text: (§1) An exemplary amino acid sequence of MUC5AC is presented in SEQ ID NO: 36 with an exemplary nucleic acid sequence encoding MUC5AC presented in SEQ ID NO: 37. Therefore, a recombinant expression plasmid was designed and constructed that encoded residues upstream of tandem repeat units and two tandem repeat units (“MUC5AC-long” SEQ ID NO: 38 with the corresponding nucleic acid sequence of SEQ ID NO: 39). The MUC5AC long peptide corresponds to amino acid residues 2636 to 2942 of the MUC5AC protein (SEQ ID NO: 36). A second expression plasmid was designed and constructed that encoded primarily a short domain which connects to the central repetitive region and only a portion of the tandem repeat residues (“MUC5AC-short” SEQ ID NO: 40 with the nucleic acid encoding it in SEQ ID NO: 41). The MUC5AC short peptide corresponds to amino acid residues 2636 to 2763 of the MUC5AC protein (SEQ ID NO: 36). These smaller fragments of the large MUC5AC molecule were predicted to comprise NEO-101 antibody binding regions that contain the NPC-1 epitope(s).
(§2) The DNA sequences that contained NEO-101 antibody binding regions, based on the amino acid sequence, were back-translated to nucleic acid sequence and the DNAs were synthesized by methods well-known in the art. […]

MUC5AC short construct = target: T2, MUC5AC short construct (Homo sapiens, UniProt P98088, I3234V); experiment: Immunofluorescence of transfected CHO cells; format: cell-based; conditions: different plasmid clones of the MUC5AC short construct
T2 construct: expressed in transfected cells; host or cells: CHO cells, transient/clonal plasmid transfection
T2 sequence (P98088 3212-3339 I3234V): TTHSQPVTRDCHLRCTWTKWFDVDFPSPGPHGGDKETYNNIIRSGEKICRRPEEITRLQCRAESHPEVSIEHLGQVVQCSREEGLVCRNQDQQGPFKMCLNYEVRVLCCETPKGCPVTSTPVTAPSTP
From the text: as §1, §2

[1] = tested on: Colorectal cancer biopsies; experiment: IHC staining of patient tumor biopsies with NEO-101; format: binding, human
Procedure: (§3) Patients enrolled on the clinical diagnostic study agreed to provide their tumor biopsy or surgical specimen to be stained immunohistochemically with NEO-101. Tumor sections were prepared as slides, and two additional slides were prepared for negative control (human IgG1) and positive control (cytokeratin) staining to ensure quality controls for the IHC method. More specifically, tumor biopsy specimens from colorectal and pancreas cancer patients were deparaffinized at about 60° C. for 30 min prior to staining with NEO-101. Subsequently, all staining steps were carried out at about 25° C. Slides (4 μm) were blocked with Peroxo-Bloc® inhibitor (Zymed Laboratories) for about 2 min, rinsed with phosphate-buffered saline (PBS), and blocked with CAS (Zymed) for an additional about 10 minutes. Slides were stained with about 10 μg/mL of biotin-labeled NEO-101 for 1 hour, and washed three times with PBS containing 0.05% Tween®-20 non-ionic detergent. […] A 1:400 dilution of peroxidase-conjugated streptavidin (Dako North America, Inc.) was then applied to the slides for about 30 minutes and slides were washed three times. A solution of DAB (Zymed) was applied for about 2-3 minutes then rinsed with PBS. A solution of hematoxylin was then applied for about 3 minutes and rinsed with tap water until clear. The slides were dehydrated with xylene and a coverslip was added using Permount® mounting medium. Additional consecutive slides were stained with human cytokeratin AE1/AE3 (Abcam plc) as a positive control, and human IgG1 isotype as a negative control (AXXORA, LLC).
(§4) All antibodies were biotinylated prior to use and tested independently at various concentrations using human tumor tissues known to react with the antibodies. Primary antibody (NEO-101) was used at about 10 μg/mL, detected with streptavidin-horseradish peroxidase conjugate, and mounted on slides. A positive staining scale ranging from +1 to +5 was applied to the staining results, measured by light microscopy. Tissues stained with NEO-101 were considered positive (+1 to +5) for an average of 79% of the patient tumor samples (30 of 38 of both colorectal and pancreatic cancer biopsies) including the 5 pancreatic tumor samples. Tissues that were negative or considered weak staining by the immunohistochemist were considered negative. These staining results are similar to results from several other studies completed with antibodies using tissue array slides, and both frozen and paraffin-embedded surgical specimens.

[2] = tested on: Pancreatic cancer biopsies; experiment: as above; format: binding, human
Procedure: as §3, §4

SW620 (Colorectal) = experiment: ADCC 4-hour 111-Indium release assay; format: cell-based, human
Procedure: The NEO-101 antibody was tested for antibody-dependent cell cytotoxicity (ADCC) activity against several colorectal and pancreatic tumor cell targets in vitro. The ADCC assay measures the amount of cell cytotoxicity that an antibody facilitates in a defined time period by the release of radiolabelled cytoplasmic proteins into the culture medium. […] The specific lytic activity was titratable with the number of effector cells in the assay.

lung tumor tissue = experiment: Immunohistochemistry of lung tumor tissue; format: binding; conditions: 10 μg/ml biotinylated antibody
Procedure: Slides were deparaffinized, rehydrated and antigen retrieval was performed. Slides were then stained with 10 μg/ml biotinylated NEO-101 antibody and then streptavidin-HRP was applied for color development. Slides were counter stained with H.E., hydrated and fixed. The results
The specificity of NEO-101 for pancreatic and colorectal tumor tissue was further shown by staining lung tumor tissue. While there was significant binding to these tissues with a commercial antibody that recognizes normal MUC5AC, there was no reactivity of NEO-101 with these lung tumor tissues.

CHO cells bound by antibody (MUC5AC long construct): 76%-88%
CHO cells bound by antibody (MUC5AC short construct): 11%-80%
B1: NEO-101: Chimeric NEO-101 antibody, engineered in CHO-DG44 production cell clone 4B7; targets a variant of MUC5AC (protein)
light: QVVLTQSPVIMSASPGEKVTMTCSASSSISYMYWYQQKPGTSPKRWIYDTSKLASGVPARFSGSGSGTSYSLTISNMEAGDAATYYCHQRDSYPWTFGGGTNLEIK
heavy: QVQLKESGPDLVAPSQSLSITCTVSGFSLSKFGVNWVRQPPGKGLEWLGVIWGDGSTSYNSGLISRLSISKENSKSQVFLKLNSLQADDTATYYCVKPGGDYWGHGTSVTVSS
% Positive by IHC with NEO-1O1 [1]: 76%
Positive by IHC, subjects/total [1]: (25/33)
% Positive by IHC with NEO-1O1 [2]: 100%
Positive by IHC, subjects/total [2]: (5/5)
% Specific Killing (±SEM) (SW620 (Colorectal); Effector:Target 12.5:1): 51.5 ± 0.9%
% Specific Killing (±SEM) (SW620 (Colorectal); Effector:Target 25:1): 61.0 ± 1.8%
% Specific Killing (±SEM) (SW620 (Colorectal); Effector:Target 50:1): 63.7 ± 2.9%
reactivity with lung tumor tissues (lung tumor tissue): no reactivity

— US11078245B2, “Colon and pancreas cancer peptidomimetics” (PRECISION BIOLOGICS, INC., priority 2010, dated 2021)
